Experimental findings from US20230183318A1 (KOREA UNIVERSITY RESEARCH AND BUSINESS FOUNDATION, published 2023) are described below.

The target in assay [1] is T1, dimeric human PD-L1 (PD-L1-Fc), Alexa-488 labelled (human, UniProt Q9NZQ7 19-238, Alexa-488 fluorescent label (sites not given)).
T1 construct: also called dimeric PD-L1-Fc-Alexa488 probe; dimeric PD-L1-Alexa488 probe; not shown: Fc domain of antibody IgG at the C-terminus; GS linker between PD-L1 and Fc
Briefly: flow cytometry of E. coli spheroplasts displaying the variant, 50 nM dimeric PD-L1-Fc-Alexa488. In general terms: Flow cytometry measures light scatter and fluorescence of single cells or particles in a stream.

The target of assay [2] is T1, dimeric human PD-L1 (PD-L1-Fc), …. In words: flow cytometry of E. coli spheroplasts displaying single clones, fluorescent PD-L1 probe. As to the method:
Single colonies at the final round were incubated like Examples above to overexpress the protein and recover E. coli, respectively, and the peptidoglycan layer was removed and the spheroplasts were fluorescent-labeled, and then the binding ability to PD-L1 was analyzed by measuring the fluorescence signal values using FACSCalibur equipment.

Where a chain is given by its changes, count along the chain named. Numbers in names are those of the source.

T1 sequence (Q9NZQ7 19-238): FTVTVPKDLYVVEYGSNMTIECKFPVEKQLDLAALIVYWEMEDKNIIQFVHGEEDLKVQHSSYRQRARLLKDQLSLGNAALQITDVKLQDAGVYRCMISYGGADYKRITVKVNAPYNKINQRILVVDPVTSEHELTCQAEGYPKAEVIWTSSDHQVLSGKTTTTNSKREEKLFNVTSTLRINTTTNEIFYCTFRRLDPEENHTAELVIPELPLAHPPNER

B1: aglycosylated PD-1 variant Q-IITV (F13I, N25Q, N34Q, M46I, N50Q, C69T, N92Q, G100V), displayed on E. coli spheroplasts (receptor)
chain: LDSPDRPWNPPTISPALLVVTEGDQATFTCSFSQTSESFVLNWYRISPSQQTDKLAAFPEDRSQPGQDTRFRVTQLPNGRDFHMSVVRARRQDSGTYLCVAISLAPKAQIKESLRAELRVTERRAEVPTAHPSPSPRPAGQFQ
notes: pMopac12-N1pA-PD1_Q-IITV-FLAG; not shown: NlpA leader/anchor of the pMopac12-NlpA-FLAG vector; FLAG tag
On to B1, for which the binding result in assay [1] is listed as “binds”.

B2: aglycosylated PD-1 variant Q33, displayed on E. coli spheroplasts (receptor)
chain: B1 chain with Q34R, R88G, R90Q, A108V
notes: Single clone of the final sorting round; not shown: NlpA leader/anchor of the pMopac12-NlpA-FLAG vector; FLAG tag
As to B2, the binding result in assay [2] is “binds”.

B3: PD-1 variant N-IITV (F13I, M46I, C69T, G100V), displayed on E. coli spheroplasts (receptor)
chain: B1 chain with Q25N, Q34N, Q50N, Q92N
notes: also called N-IIITV; PD1_N-IITV; not shown: NlpA leader/anchor of the pMopac12-NlpA-FLAG vector; FLAG tag
Regarding B3, the binding result in assay [1] was “binds”.

B4: aglycosylated PD-1 variant Q18, displayed on E. coli spheroplasts (receptor)
chain: B1 chain with S31G, F32L, S33P, S47G, T52M, A108V, P128R, P138S
notes: as for B2
Consider B4, for which, in assay [2], the binding result was “binds”.

B5: aglycosylated PD-1 variant Q10, displayed on E. coli spheroplasts (receptor)
chain: B1 chain with F32L, T52M, V87D, T96S, A108V
notes: as for B2
Regarding B5, the binding result in assay [2] is “binds”.

B6: aglycosylated PD-1 variant Q12, displayed on E. coli spheroplasts (receptor)
chain: B1 chain with W8L, N9D, E37K, A108V, G140C
notes: as for B2
With B6, the binding result in assay [2] was “binds”.
